According to article PMC12141571:

Details: phosphorylation at T188

Substance	other	enzymatic_activity
Erk2: R65H+T188A vs R65H (HEK293, no EGF; TEY phosphorylation)	increases	
Erk2: R65H+T188E, R65H+T188D (recombinant; dual TEY autophosphorylation)	decreases	
Erk2: T188A (HEK293 + EGF; TEY phosphorylation)	increases	
Erk2: T188A (HEK293, no EGF; TEY phosphorylation)	increases, 2–6 fold	
Erk2: T188A (recombinant protein, in vitro kinase assay)		abolishes
Erk2: T188A (recombinant; dual TEY phosphorylation by MEK1EE in vitro)	decreases, 2.2% doubly phosphorylated (Erk2WT 12.5%)	
Erk2: T188A (recombinant; spontaneous Tyr185 autophosphorylation)	increases, 84% monophosphorylated on Tyr185	
Erk2: T188C		no change
Erk2: T188D (recombinant; dual TEY phosphorylation by MEK1EE in vitro)	decreases, 2.2% dually phosphorylated (Erk2WT 12.5%)	
Erk2: T188E, T188D (HEK293 + EGF; TEY phosphorylation)	increases	
Erk2: T188E, T188D (recombinant protein, in vitro kinase assay)		abolishes
Erk2: T188G		decreases, to about 6%
Erk2: T188N		abolishes
Erk2: T188S		increases

Same assay, conditions: phosphorylation at T207

Substance	other	enzymatic_activity
Erk1: R84H+T207A vs R84H (HEK293, no EGF; TEY phosphorylation)	increases	
Erk1: T207A (HEK293 + EGF; TEY phosphorylation)	increases	
Erk1: T207A (HEK293, no EGF; TEY phosphorylation)	increases, 2–6 fold	
Erk1: T207A (recombinant protein, in vitro kinase assay)		abolishes
Erk1: T207E, T207D (HEK293 + EGF; TEY phosphorylation)	increases	
Erk1: T207E, T207D (recombinant protein, in vitro kinase assay)		abolishes
